One test concerns β-catenin. As to the kind of experiment: β-catenin level in human HEK293 cells (Western blot). It is filed as cell-based. The conditions noted are these: FG01 expression. From the text:
Expression of β-catenin, inactivated phospho-GSK-3β, total GSK-3, APP, β-CTF and FG01 in transfected human HEK293 cells were shown by Western blots.
On the technique in general: Immunoblotting shows a protein as a band on a membrane.

The subject of the next test is tau. As to the kind of experiment: tau phosphorylation (Thr205, PHF-1) in N2aSwe cells cotransfected with human tau T40. It is filed as cell-based. The method, then: Since GSK-3 can phosphorylate tau at multiple sites, it was determined whether FG01 can affect tau phosphorylation by GSK-3. The human longest tau splicing variant T40 was cotransfected with FG01 or expression vector (control) into N2aSwe cells, and the tau phosphorylation examined at Thr205 and PHF-1 tauepitope (Ser396 and Ser404), which are GSK-3 phosphorylation targets and major paired helical filament (PHF) tau sites found in NFTs. […] In addition, little change was found in CDK5 protein level and its in vitro activity upon FG01 overexpression.
The human tau T40 was co-transfected with either FG01 or the expression vector into N2aSwe cells. The phospho-tau at Thr205 and PHF-1 and total tau proteins in the transfected cells were detected by Western blots (left). The levels of phospho-tau at the examined sites were quantified by densitometry and normalized to the total levels (right).
(§1) GSK-3 is a major kinase that phosphorylates tau in AD (Flaherty et al., 2000). […] N2aSwe cells were cotransfected with the human tau splice variant T40 and with FG01 (or control vectors), and examined tau phosphorylation at the threonine 205 site (Thr205) and the PHF-1 tau epitope sites (serine 396 and serine 404), which are GSK-3 phosphorylation targets, and at the major paired helical filament (PHF) sites found in NFTs. […] Protein levels and activity of CDK5, another kinase mediating tau phosphorylation in AD (Flaherty et al., 2000), was analyzed following FG01 overexpression. […] N2a cells were transfected with FG01 or a control vector (Con). Equal cell lysate proteins were used for assaying in vitro CDK5 activity.

Another test deals with APP. As to the kind of experiment: APP trafficking to cell surface (biotinylation) in N2a/swe cells. It is filed as cell-based, mouse. The conditions noted are these: FG01-transfected N2a/swe cells. An excerpt:
After treated with biotin or DMSO, membrane protein and total cell lysates were subjected to Western blots for APP.

Another test deals with cAMP levels. As to the kind of experiment: cAMP assay in rat PC12 cells. It is filed as cell-based. As to conditions: FG01 overexpression. The method, then:
Commercial kits were used to assay in vitro activities of GSK-3β (Sigma) and PKA (Upstate). For GSK-3α activity, a commercial GSK-3β activity assay kit was used but the procedure to immunoprecititate GSK-3β was replaced with immunoprecipitation of GSK-3α using an anti-GSK-3α antibody (Cell Signaling). cAMP levels were assayed using a commercial kit (Biovision).

In the next test the test system is β-secretase (BACE1). Kind of test: β-secretase (BACE1) in vitro activity and protein level in FG01-overexpressing cells. It is filed as cell-based, mouse. The method, then:
The in vitro activity of β-secretase (BACE1) was assayed using a commercial kit (Calbiochem), following the manufacturer's protocol.
To determine whether FG01 reduces Aβ generation by modulating β-secretase activities, β-secretase (BACE1) activity and the protein level of BACE1 in vitro in FG01-overexpressing cells was examined and both were unchanged. FG01 cell clones identified by RHKO were treated with DMSO (control) or 2 μg/ml doxycycline for 72 hrs. In some experiments, N2a cells were transfected with control vector (Con) or FG01 vector for 48 hrs. Cell lysates were assayed for β-secretase activity. FG01 was transfected into N2a cells and equal protein lysates were subjected to SDS-PAGE and Western blot with antibodies against BACE1 (Yan et al., 2001), nicastrin (Leem et al., 2002) or Myc. APP βCTF accumulation can also be attributed to a decrease in γ-secretase-mediated cleavage.

A further test has as its system γ-secretase. As to the kind of experiment: γ-secretase cleavage on Notch (NICD generation) and nicastrin level. It is filed as cell-based, mouse. An excerpt:
The levels of the recombinant Notch (NotchΔE with Myc-tag) and the γ-secretase cleaved Notch fragment (NICD) were quantified by Western blotting using myc antibody and an antibody specific to processed Notch followed by densitometry. […] The results represent at least four independent experiments.
N2a cells were transfected with Myc-tagged Notch1 NΔE construct lacking the ectodomain, which allows ligand-independent processing by γ-secretase to produce NICD (Schroeter et al., 1998). NICD generation was analyzed by immunoblot with an antibody specifically recognizing the cleaved Notch product NICD (Cell Signaling Technology).
Cleavage of Notch, another important γ-secretase substrate (Kopan and Goate, 2000), was not altered by FG01 overexpression. N2a cells were transfected with Myc-tagged Notch1 NΔE construct. After equal splitting, cells were transfected with control vector (Con) or FG01. Cell lysates were subjected to SDS-PAGE and Western blot with the Myc antibody (recognizing both exogenous FG01 and Notch NΔE) and with an NICD-specific antibody. Protein levels of nicastrin, an important component of the γ-secretase complex, were also not affected by FG01 overexpression.

The test system of another test is CDK5. As to the kind of experiment: CDK5 protein level and in vitro activity in N2a cells. It is filed as cell-based, mouse. As to conditions: FG01 overexpression. The method, then: The in vitro activity of CDK5 was assayed as described (Han et al., 2005). Briefly, CDK5 protein was immunoprecipitated and incubated with histone-H1 in [γ-^32P]ATP-containing buffer. After reaction termination, samples were subjected to SDS-PAGE and autoradiography. Results were quantified using a PhosphoImager (Molecular Dynamics).
as §1

A further test concerns PKA. As to the kind of experiment: PKA inhibitor H89 treatment of FG01-transfected N2aSwe cells. It is filed as cell-based, mouse. As to conditions: FG01-transfected cells treated with H89. The protocol: After 48 hr incubation, cell media were changed to Opti-MEM (Invitrogen) containing DMSO or a PKA activity inhibitor H89 (2 μM) and cells were incubated for additional 4 hrs. The cell media were used for Aβ immunoprecipitation-Western blotting and cell lysates were subjected to Western blotting for p-CREB (substrate for PKA) and p-GSK3β. As shown, inhibiting PKA activity with H89 prevented serine phosphorylation of CREB and GSK3β by FG01.
N2aSwe cells were transfected with control vector or FG01 and then equally split. Four hours before collection, cells were treated with the GSK-3 inhibitor lithium chloride (5 mM) or sodium chloride (5 mM, as control). Alternatively, cells were treated with a PKA inhibitor H89 at 10 μM or with DMSO for control.

Where [1] appears, read: human tau T40 cotransfected with FG01.

Entries after “also recorded” stand apart in the source; their conditions may differ.

B1: FG01: 141 amino acid transmembrane protein encoded by mouse retrogene fg01 (SEQ ID NO:2); expressed from transfected vector or transgene (protein)
chain: MQSQQRNIGYFNHLKADSRNITYSMTFSTKSSNQNFIIFLNEVQAAIIGHERCDLLPVLNELHPDALPDGRIWLFGLNPYFFQHNSLCMRGTPKRIGLQGCAQVGFLVLFVMPLLIPSVTAELPGSSETTTLAHLAGATGP
modifications: Myc and His6 tags; homo sapien
notes: expressed from transfected vector or transgene
For B1, the “level of β-catenin” value with β-catenin was “increases”. Besides, in the test with tau (setting [1]), the total tau levels entry is “without affecting” and the unphosphorylated tau levels result is “increased”. In addition, in the test on tau (human tau T40 cotransfected with FG01 in N2aSwe cells), the “tau phosphorylation at GSK-3 target sites” value was “significantly decreased”. Moreover, the “decrease of tau phosphorylation at Thr205 and PHF-1 epitope (Ser396, Ser404)” value in the test with tau (human tau T40 cotransfected with FG01 in N2aSwe cells, densitometry) was about 60%. For the same molecule, the “APP trafficking to cell surface” value in the test with APP is “stimulates”. In the test with cAMP levels, the “increase of cAMP levels” value is reported as 75%. Also, the “protein level of BACE1” value in the test with β-secretase (BACE1) (FG01-overexpressing N2a cells, Western blot) was “unchanged”. For the same molecule, in the test with β-secretase (BACE1) (in vitro assay, FG01-overexpressing cells), the “β-secretase (BACE1) activity” value is recorded as “did not significantly change; also recorded: unchanged”. Moreover, in the test on γ-secretase (FG01 overexpression in N2a cells), the “protein levels of nicastrin” value is reported as “not affected”. The Notch cleavage result in the test on γ-secretase (Notch ΔE cotransfected with FG01) is “not altered”. Further, in the test with CDK5, the “CDK5 in vitro activity” value is “Little change” and the CDK5 protein level entry was “Little change”. In the test on PKA, the “inhibition of Aβ generation when PKA suppressed by H89” value was “failed to inhibit” and the “inhibition of GSK-3 activity when PKA suppressed by H89” value was “failed to inhibit”.

Source of the values: patent US20090233993A1, “COMPOSITIONS AND METHODS FOR INHIBITING GSK3 ACTIVITY AND USES THEREOF” (Burnham Institute for Medical Research, priority 2008, published 2009).
